Ends that are not written are not given here.
Target: target rabbit anti-LOS antibody
Experiment: capture ELISA, phage on coated antibody; OD over irrelevant rabbit antibody

Binder | Fold rise of ELISA value [fold]
NMMRFTELSTPSGGGS (peptide, not shown: large carriers) [phage clone 2-15] | 1510

Target: target rabbit anti-LOS antibody
Experiment: peptide ELISA, peptide coupled to NucleoLink strip, target antibody 0.4 ug/well

Binder | Binding reactivity (OD405)
NMMKYISPPIFLGGGS (also: coupled via C-terminal carboxyl to NucleoLink strips) [synthetic peptide 3 … with C-terminal GGGS spacer] | 1.11
NMMRFTELSTPSGGGS (also: coupled via C-terminal carboxyl to NucleoLink strips) [synthetic peptide 4 … with C-terminal GGGS spacer] | 0.99
NMMRFTSQPPNNGGGS (also: coupled via C-terminal carboxyl to NucleoLink strips) [synthetic peptide 1 … with C-terminal GGGS spacer] | 0.4
NMMNYIMDPRTHGGGS (also: coupled via C-terminal carboxyl to NucleoLink strips) [synthetic peptide 2 … with C-terminal GGGS spacer] | 2.52
TLAHHKKPWILRGGGS (also: coupled via C-terminal carboxyl to NucleoLink strips) [synthetic peptide 5 … (control peptide from an unrelated clone) with C-terminal GGGS spacer] | 0.33

Source: patent publication US20060018919A1
